Measured values reported in patent publication US11692007B2, “Amino deprotection using 3-(diethylamino)propylamine” (priority 2021, dated 2023).
Where two headings read alike, the source gives them in different places. Marks after values point to notes of the source that are not given here. Non-standard residues stand in square brackets, D forms with d. Residues, ends and D or L forms follow the SMILES beside them. *: point of attachment. dPhe(4-NHCONH2) = NC(=O)Nc1ccc(C[C@@H](N)C(=O)O)cc1; Dihydroorotyl(S) = O=C1C[C@@H](C(=O)*)NC(=O)N1; dPhe(4-Cl) = N[C@H](Cc1ccc(Cl)cc1)C(=O)O; Phe(4-NH2) = Nc1ccc(C[C@H](N)C(=O)O)cc1; d2Nal = N[C@H](Cc1ccc2ccccc2c1)C(=O)O; Lys(iPr) = CC(C)NCCCC[C@H](N)C(=O)O; d3Pal = N[C@H](Cc1cccnc1)C(=O)O

What was measured:
[1] = Procedure: A sample of Degarelix, as a lyophilized powder of about 99% of purity, was dissolved at a concentration of 17 g/L in DMF with 10% of piperidine, TMG, TBA or DEAPA. The stability at RT was measured by HPLC at t=0 (t0), t=8 hr (t1), and t=24 hr (t3) using an Agilent 1260 Infinity II system, using a column Waters Xterra Shield RP18, 3.5 μm, 4.6×150 mm; temperature: 25° C.; sample concentration 0.5 mg/mL; injection volume: 10 μL; flow: 0.7 mL/min; buffer: 65% 40 mM ammonium acetate, pH 10:35% ACN; elution: isocratic, 0-30 min 100% buffer; detection: UV 245 nm.
[2] = for Hydantoin impurity (VI) at RRT 1.03 / purity (HPLC) / specified impurity RRT 0.85 (X, unknown): RT; for Hydantoin impurity (VI) at RRT 1.03: at both t0 and t3 (24 h); for specified impurity RRT 0.85 (X, unknown): not present at t0
Procedure: Degarelix was kept in a solution of 10% DEAPA in DMF for 24 h to simulate conditions corresponding to those used for removal of Fmoc group during full SPPS. Samples were analyzed by HPLC at four checkpoints up to 24 h and the four HPLC profiles obtained were compared as shown in FIG. 3 and FIG. 4 (for detailed experimental procedure, see Example 7).
Example 7: HPLC analyses were performed on Agilent 1260 Infinity II system, using columns Waters Cortecs C18 2.7 μm, 4.6×150 mm; temperature: 30° C.; injection volume: 10 μL, UV: 245 nm; pH 5.5 Phosphate Buffer: 25 mM Potassium Phosphate to pH 5.5; pH 3.5 Phosphate Buffer: 25 mM Potassium Phosphate to pH 3.5; mobile phases: 75% pH 5.5 Buffer: 25% CH3CN (A); 65% pH 3.5 Buffer: 35% CH3CN (B); flow: 1.0 mL/min, sample concentration 0.5 mg/ml; gradient: 0-5 min 0% B, 5-45 min […], 45-46 min 100-0% B, 46-60 min 0% B.
The stability at RT was followed for 24 h at four check points, i.e. t0, 1 h (t1), 4 h (t2) and 24 h (t3).
Superimposed HPLC profiles are shown in FIG. 3 (Test 1) and FIG. 4 (Test 2).

[3] = test system: rat; conditions: in vivo; cited from earlier work
[4] = Stress stability test of resin-bound H-Ala-Lys-Asp-Gly-Tyr-Ile-OH with piperidine, DEAPA, TMG and TBA in DMF or NBP (aspartimide formation, HPLC); assay type: physicochemical
Procedure: A stress test was then performed whereby the model peptide was submitted to basic conditions to simulate repeated alpha-amino deprotection cycles. Resin-bound H-Ala-Lys-Asp-Gly-Tyr-Ile-OH (still bearing side-chain protections) was treated in parallel with 20% piperidine, 10% DEAPA, 5% TMG or 20% TBA solutions, in DMF or NBP, for 4 h at RT.
As shown in Scheme 2 above, the formation of the aspartimide side-product may be followed by nucleophilic attack onto the aspartimide ring with formation of further by-products, like amine-adducts (amine-mediated ring-opening) and alpha- and beta-peptides (water-mediated ring-opening).
The hexapeptide samples obtained after such treatments with the Fmoc cleavage solutions were analyzed by HPLC and the results are shown in Table 1 (for detailed experimental procedure, see Example 6).
In Table 1, Δ Asp indicates the amount of additional overall aspartimide impurities (comprising piperidides by-products) resulting from the stress test relative to the initial aspartimide amount (2.6%).
Examples 1-6: HPLC-MS analyses were performed on Agilent 1260 Infinity II system coupled to an electrospray ionization mass spectrometer (positive-ion mode, m/z=100-1500, fragmentor 30 V), using columns Agilent Zorbax-SB-C18 5 μm, 250×4.6 mm or Phenomenex Luna C18 5 μm, 250×4.6 mm; temperature: 25° C.; injection volume: 10 μL, UV: 220 nm, mobile phases: H2O+0.08% TFA (A) and CH3CN+0.08% TFA (B), flow: 0.5 mL/min or 1.0 mL/min.
100 mg of dry resin H-Ala-Lys-Asp-Gly-Tyr-Ile-Trt-PS (prepared as described in Example 2) were swelled in 2 mL of DMF or NBP for 30 minutes. The resin was filtered and a 2 mL solution of 10% DEAPA (or 20% piperidine, 5% TMG, 20% TBA) in DMF or NBP was added to the resin and stirred for 4 hours at RT. The resin was filtered, washed with DMF or NBP (3×2 mL) and with DCM (3×2 mL). Dry peptide resin was suspended in 3 mL of the mixture TFA/TIS/H2O (90/5/5 v/v/v) and stirred for 2 h. The resin was filtered off and diisopropylether (10 mL) cooled to 4° C. was added to the solution. The peptide was filtered and dried in vacuo to obtain crude H-Ala-Lys-Asp-Gly-Tyr-Ile-OH (II) and aspartimide impurity (III) in different ratios according to the used conditions.
Table 1 in the description lists the results. ΔAsp indicates the difference between the aspartimide amount formed after stress tests (including piperidides if present) and that arising from the hexapeptide synthesis (2.6%, see Example 2).
HPLC-MS analysis gradient: 0-30 min 10-40% B; flow: 0.5 mL/min.

[5] = test system: mice; conditions: acute oral toxicity; cited from earlier work
[6] = test system: rabbits; conditions: acute oral toxicity; cited from earlier work
[7] = test system: rats; conditions: acute oral toxicity; cited from earlier work
[8] = 24 hr at RT, 10% DEAPA in DMF, 17 g/L
[9] = 24 hr at RT, 10% TBA in DMF, 17 g/L
[10] = 24 hr at RT, 10% TMG in DMF, 17 g/L
[11] = 24 hr at RT, 10% piperidine in DMF, 17 g/L
[12] = duration 0, base solution none, 17 g/L in DMF
[13] = Test 1, about 170 g/L in DMF with 10% DEAPA, t3 (24 h)
[14] = Test 2, about 17 g/L in DMF with 10% DEAPA, t3 (24 h)
[15] = 10% DEAPA in DMF, 4 h at RT, resin-bound
[16] = 10% DEAPA in NBP, 4 h at RT, resin-bound
[17] = 20% TBA in DMF, 4 h at RT, resin-bound
[18] = 20% TBA in NBP, 4 h at RT, resin-bound
[19] = 20% piperidine in DMF, 4 h at RT, resin-bound
[20] = 20% piperidine in NBP, 4 h at RT, resin-bound
[21] = starting point, after synthesis in DMF with 20% pip, before stress test

CC(=O)N[C@H](Cc1ccc2ccccc2c1)C(=O)N[C@H](Cc1ccc(Cl)cc1)C(=O)N[C@H](Cc1cccnc1)C(=O)N[C@@H](CO)C(=O)N[C@@H](Cc1ccc(NC(=O)[C@@H]2CC(=O)NC(=O)N2)cc1)C(=O)N[C@H](Cc1ccc(NC(N)=O)cc1)C(=O)N[C@@H](CC(C)C)C(=O)N[C@@H](CCCCNC(C)C)C(=O)N1CCC[C@H]1C(=O)N[C@H](C)C(N)=O [Degarelix, Ac-D-Nal-D-Cpa-D-Pal-Ser-Aph(Hor)-D-Aph(Cbm)-Leu-Lys(iPr)-Pro-D-Ala-NH2] (Ac-[d2Nal][dPhe(4-Cl)][d3Pal]S[Phe(4-NH2)](Dihydroorotyl(S))[dPhe(4-NHCONH2)]L[Lys(iPr)]P[dA]-NH2)
Degarelix % [1, 8]: 99.97% | Hydantoin VI % [1, 8]: 0.03% | Degarelix % [1, 9]: 99.96% | Hydantoin VI % [1, 9]: 0.04% | Degarelix % [1, 10]: 98.7% | Hydantoin VI % [1, 10]: 1.3% | Degarelix % [1, 11]: 99.96% | Hydantoin VI % [1, 11]: 0.04% | amount of hydantoin impurity (VI) ([1]; after 24-hours treatment with DEAPA (10% in DMF)): unchanged | Degarelix % [1, 12]: 99.97% | Hydantoin VI % [1, 12]: 0.03% | degradation of degarelix ([2]; 10% DEAPA in DMF, up to 24 h): No significant degradation | increase of hydantoin impurity ([2]; 10% DEAPA in DMF, up to 24 h): no increase | Hydantoin impurity (VI) at RRT 1.03 ([2]; Test 1, about 170 g/L in DMF with 10% DEAPA): 0.10% | purity (HPLC) ([2]; Test 1, about 170 g/L in DMF with 10% DEAPA, t0): 99.17% | purity (HPLC) [2, 13]: 99.10% | specified impurity RRT 0.85 (X, unknown) [2, 13]: 0.06% | Hydantoin impurity (VI) at RRT 1.03 ([2]; Test 2, about 17 g/L in DMF with 10% DEAPA): 0.09% | purity (HPLC) ([2]; Test 2, about 17 g/L in DMF with 10% DEAPA, t0): 99.18% | purity (HPLC) [2, 14]: 99.10% | specified impurity RRT 0.85 (X, unknown) [2, 14]: 0.04%

CCN(CC)CCCN [DEAPA, 3-(diethylamino)propylamine]
LD50 [3]: 830 mg/kg

H-Ala-Lys-Asp-Gly-Tyr-Ile-OH (H-AKDGYI-OH) [III]
Aspartimide (IV) (A %) ([4]; 5% TMG in DMF, 4 h at RT, resin-bound): 85.5 A % | III (A %) ([4]; 5% TMG in DMF, 4 h at RT, resin-bound, sum of alpha- and beta-peptide): 14.5^a A % | Δ Asp (A %) ([4]; 5% TMG in DMF, 4 h at RT, relative to initial 2.6%): 82.9 A % | Aspartimide (IV) (A %) ([4]; 5% TMG in NBP, 4 h at RT, resin-bound): 72.9 A % | III (A %) ([4]; 5% TMG in NBP, 4 h at RT, resin-bound, sum of alpha- and beta-peptide): 27.1^a A % | Δ Asp (A %) ([4]; 5% TMG in NBP, 4 h at RT, relative to initial 2.6%): 70.3 A % | Aspartimide (IV) (A %) [4, 15]: 10.1 A % | III (A %) [4, 15]: 89.9 A % | Δ Asp (A %) ([4]; 10% DEAPA in DMF, 4 h at RT, relative to initial 2.6%): 7.5 A % | Aspartimide (IV) (A %) [4, 16]: 4.2 A % | III (A %) [4, 16]: 95.8 A % | Δ Asp (A %) ([4]; 10% DEAPA in NBP, 4 h at RT, relative to initial 2.6%): 1.6 A % | Aspartimide (IV) (A %) [4, 17]: 29.3 A % | III (A %) [4, 17]: 70.7 A % | Δ Asp (A %) ([4]; 20% TBA in DMF, 4 h at RT, relative to initial 2.6%): 26.7 A % | Aspartimide (IV) (A %) [4, 18]: 20.0 A % | III (A %) [4, 18]: 80.0 A % | Δ Asp (A %) ([4]; 20% TBA in NBP, 4 h at RT, relative to initial 2.6%): 17.4 A % | Aspartimide (IV) (A %) [4, 19]: 7.2 A % | III (A %) [4, 19]: 86.5 A % | Piperidides (V) (A %) [4, 19]: 6.3 A % | Δ Asp (A %) ([4]; 20% piperidine in DMF, 4 h at RT, additional aspartimide impurities incl. piperidides relative to initial 2.6%): 10.9 A % | Aspartimide (IV) (A %) [4, 20]: 7.1 A % | III (A %) [4, 20]: 90.0 A % | Piperidides (V) (A %) [4, 20]: 2.9 A % | Δ Asp (A %) ([4]; 20% piperidine in NBP, 4 h at RT, incl. piperidides, relative to initial 2.6%): 7.4 A % | Aspartimide (IV) (A %) [4, 21]: 2.6 A % | III (A %) [4, 21]: 97.4 A %

C1CCNCC1 [piperidine]
LD50 [5]: 30 mg/kg | LD50 [6]: 145 mg/kg | LD50 [7]: 400 mg/kg
